In paper PMC9482650, “Quantitative fragmentomics allow affinity mapping of interactomes” (Nature Communications, 2022):

T1: DLG3_3, Q92796
T1 sequence (Q92796 374-475, limits assumed, looked up): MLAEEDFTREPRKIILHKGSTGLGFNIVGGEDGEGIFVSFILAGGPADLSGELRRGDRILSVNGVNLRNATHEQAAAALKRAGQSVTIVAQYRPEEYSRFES

T2: GRIP1_4, Q9Y3R0
T2 sequence (Q9Y3R0 467-571, limits assumed, looked up): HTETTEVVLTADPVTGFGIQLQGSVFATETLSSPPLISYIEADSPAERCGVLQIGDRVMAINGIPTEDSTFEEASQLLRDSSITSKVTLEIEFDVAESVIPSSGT

T3: APBA1_1, Q02410
T3 sequence (Q02410 651-752, limits assumed, looked up): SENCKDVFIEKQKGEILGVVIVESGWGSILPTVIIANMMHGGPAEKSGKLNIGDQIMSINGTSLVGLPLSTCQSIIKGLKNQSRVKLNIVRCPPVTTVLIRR

T4: MPP7, Q5T2T1
T4 sequence (Q5T2T1 134-230, limits assumed, looked up): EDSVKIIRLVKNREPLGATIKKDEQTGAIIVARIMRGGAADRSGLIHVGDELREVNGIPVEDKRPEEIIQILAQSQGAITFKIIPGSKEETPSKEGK

T5: MPP6, Q9NZW5
T5 sequence (Q9NZW5 125-219, limits assumed, looked up): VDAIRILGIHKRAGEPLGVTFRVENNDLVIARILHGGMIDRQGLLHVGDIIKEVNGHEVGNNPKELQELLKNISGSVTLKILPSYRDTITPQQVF

T6: SNTG1, Q9NSN8
T6 sequence (Q9NSN8 52-150, limits assumed, looked up): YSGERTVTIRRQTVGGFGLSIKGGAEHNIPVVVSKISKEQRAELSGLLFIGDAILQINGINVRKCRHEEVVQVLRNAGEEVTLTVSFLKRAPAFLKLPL

T7: LIN7A, O14910
T7 sequence (O14910 103-200, limits assumed, looked up): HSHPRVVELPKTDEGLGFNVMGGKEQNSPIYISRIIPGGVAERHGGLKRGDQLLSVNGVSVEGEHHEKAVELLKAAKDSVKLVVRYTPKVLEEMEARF

T8: RAPGEF6, Q8TEU7
T8 sequence (Q8TEU7 525-625, limits assumed, looked up): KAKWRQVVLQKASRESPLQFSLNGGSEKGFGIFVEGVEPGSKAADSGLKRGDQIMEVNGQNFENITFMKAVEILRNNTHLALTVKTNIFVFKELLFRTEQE


Assays:
Assay in all cases: holdup assay
Set-up in all cases: key: below the threshold = too weak to quantify, mostly under pKd 3.1 to 4
Details in all cases: plain residues with an end cap or a label only (N-terminal biotin on a linker: ado-ado)
DLG3_3, Q92796 = biological target: T1, DLG3_3, Q92796
Inadl_9, Q8NI35 = biological target: Inadl_9, Q8NI35
Chain of Inadl_9, Q8NI35 (Q8NI35 1530-1615): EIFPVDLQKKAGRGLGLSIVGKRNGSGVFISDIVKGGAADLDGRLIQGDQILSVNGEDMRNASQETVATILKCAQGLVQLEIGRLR

LNX1_1, Q8TBB1 = biological target: LNX1_1, Q8TBB1
Chain of LNX1_1, Q8TBB1 (Q8TBB1 261-371): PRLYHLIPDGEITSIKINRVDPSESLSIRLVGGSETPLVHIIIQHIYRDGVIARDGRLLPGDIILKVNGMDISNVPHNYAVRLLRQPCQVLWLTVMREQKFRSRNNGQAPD

GRIP1_4, Q9Y3R0 = biological target: T2, GRIP1_4, Q9Y3R0
MAGI1_1, Q96QZ7 = biological target: MAGI1_1, Q96QZ7
Chain of MAGI1_1, Q96QZ7 (Q96QZ7 1-106): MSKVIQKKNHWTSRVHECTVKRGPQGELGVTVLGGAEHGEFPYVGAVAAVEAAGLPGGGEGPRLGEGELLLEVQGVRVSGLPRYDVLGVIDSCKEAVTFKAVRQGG

CASK, O14936 = biological target: CASK, O14936
Chain of CASK, O14936 (O14936 487-570): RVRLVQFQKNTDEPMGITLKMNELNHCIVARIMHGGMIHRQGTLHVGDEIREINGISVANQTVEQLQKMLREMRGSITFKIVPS

GRIP2_5, Q9C0E4 = biological target: GRIP2_5, Q9C0E4
Chain of GRIP2_5, Q9C0E4 (Q9C0E4 544-642): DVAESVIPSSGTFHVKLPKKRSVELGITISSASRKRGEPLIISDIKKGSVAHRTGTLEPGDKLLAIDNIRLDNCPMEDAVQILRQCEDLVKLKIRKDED

IL16_4, Q14005 = biological target: IL16_4, Q14005
Chain of IL16_4, Q14005 (Q14005 1229-1329): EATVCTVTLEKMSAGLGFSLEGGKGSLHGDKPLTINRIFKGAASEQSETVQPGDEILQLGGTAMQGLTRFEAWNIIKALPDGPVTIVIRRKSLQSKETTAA

APBA1_1, Q02410 = biological target: T3, APBA1_1, Q02410
MPP7, Q5T2T1 = biological target: T4, MPP7, Q5T2T1
HTRA2, O43464 = biological target: HTRA2, O43464
Chain of HTRA2, O43464 (O43464 355-458): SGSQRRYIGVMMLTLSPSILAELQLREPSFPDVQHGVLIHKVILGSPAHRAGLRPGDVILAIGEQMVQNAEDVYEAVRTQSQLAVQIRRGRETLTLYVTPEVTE

FRMPD3, Q5JV73 = biological target: FRMPD3, Q5JV73
Chain of FRMPD3, Q5JV73 (Q5JV73 12-100): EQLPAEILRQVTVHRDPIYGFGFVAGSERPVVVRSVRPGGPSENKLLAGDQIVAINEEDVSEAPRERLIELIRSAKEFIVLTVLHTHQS

MAGI1_2, Q96QZ7 = biological target: MAGI1_2, Q96QZ7
Chain of MAGI1_2, Q96QZ7 (Q96QZ7 456-580): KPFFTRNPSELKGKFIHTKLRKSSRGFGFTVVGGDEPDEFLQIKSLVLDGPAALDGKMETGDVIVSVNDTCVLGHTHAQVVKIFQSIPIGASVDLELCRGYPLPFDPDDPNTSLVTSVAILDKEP

GRIP2_4, Q9C0E4 = biological target: GRIP2_4, Q9C0E4
Chain of GRIP2_4, Q9C0E4 (Q9C0E4 446-548): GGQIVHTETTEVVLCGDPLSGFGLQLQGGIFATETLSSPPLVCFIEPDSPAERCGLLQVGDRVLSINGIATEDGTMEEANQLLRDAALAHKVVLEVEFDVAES

NHERF4_4, Q86UT5 = biological target: NHERF4_4, Q86UT5
Chain of NHERF4_4, Q86UT5 (Q86UT5 464-550): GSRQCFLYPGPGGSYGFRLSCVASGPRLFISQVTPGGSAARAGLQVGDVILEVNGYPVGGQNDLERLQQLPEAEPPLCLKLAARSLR

MPP6, Q9NZW5 = biological target: T5, MPP6, Q9NZW5
SNTG1, Q9NSN8 = biological target: T6, SNTG1, Q9NSN8
LNX1_3, Q8TBB1 = biological target: LNX1_3, Q8TBB1
Chain of LNX1_3, Q8TBB1 (Q8TBB1 500-596): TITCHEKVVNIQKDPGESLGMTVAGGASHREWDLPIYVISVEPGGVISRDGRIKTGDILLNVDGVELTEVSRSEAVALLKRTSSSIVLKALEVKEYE

DLG1_3, Q12959 = biological target: DLG1_3, Q12959
Chain of DLG1_3, Q12959 (Q12959 457-571): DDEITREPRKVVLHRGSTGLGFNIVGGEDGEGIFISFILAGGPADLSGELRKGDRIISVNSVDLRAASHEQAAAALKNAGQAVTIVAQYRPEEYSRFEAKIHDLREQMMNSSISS

FRMPD2_1, Q68DX3 = biological target: FRMPD2_1, Q68DX3
Chain of FRMPD2_1, Q68DX3 (Q68DX3 770-861): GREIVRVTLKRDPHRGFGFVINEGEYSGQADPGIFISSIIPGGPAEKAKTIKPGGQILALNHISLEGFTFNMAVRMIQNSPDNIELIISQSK

IL16_3, Q14005 = biological target: IL16_3, Q14005
Chain of IL16_3, Q14005 (Q14005 1107-1207): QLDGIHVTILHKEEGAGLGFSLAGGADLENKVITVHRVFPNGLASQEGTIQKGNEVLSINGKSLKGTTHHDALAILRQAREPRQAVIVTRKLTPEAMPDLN

GRIP2_6, Q9C0E4 = biological target: GRIP2_6, Q9C0E4
Chain of GRIP2_6, Q9C0E4 (Q9C0E4 648-740): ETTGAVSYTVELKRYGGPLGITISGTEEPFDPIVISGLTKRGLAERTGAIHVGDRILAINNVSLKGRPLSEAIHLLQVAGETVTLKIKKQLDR

LIN7A, O14910 = biological target: T7, LIN7A, O14910
LIMK2, P53671 = biological target: LIMK2, P53671
Chain of LIMK2, P53671 (P53671 143-248): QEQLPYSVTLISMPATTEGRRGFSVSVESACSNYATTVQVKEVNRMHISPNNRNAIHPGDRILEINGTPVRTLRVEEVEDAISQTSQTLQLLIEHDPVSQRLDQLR

RAPGEF6, Q8TEU7 = biological target: T8, RAPGEF6, Q8TEU7
LDB3, O75112 = biological target: LDB3, O75112
Chain of LDB3, O75112 (O75112 1-94): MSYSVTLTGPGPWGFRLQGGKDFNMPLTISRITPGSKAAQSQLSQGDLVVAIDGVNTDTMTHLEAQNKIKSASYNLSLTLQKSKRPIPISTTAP

MAST1, Q9Y2H9 = biological target: MAST1, Q9Y2H9
Chain of MAST1, Q9Y2H9 (Q9Y2H9 962-1065): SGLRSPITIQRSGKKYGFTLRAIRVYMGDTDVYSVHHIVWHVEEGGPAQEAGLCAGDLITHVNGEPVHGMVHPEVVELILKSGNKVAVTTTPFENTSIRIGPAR

HTRA1, Q92743 = biological target: HTRA1, Q92743
Chain of HTRA1, Q92743 (Q92743 360-477): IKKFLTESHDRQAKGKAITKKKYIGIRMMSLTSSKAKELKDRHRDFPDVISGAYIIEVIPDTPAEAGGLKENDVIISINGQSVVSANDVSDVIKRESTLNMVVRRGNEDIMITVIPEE

PDZRN4_1, Q6ZMN7 = biological target: PDZRN4_1, Q6ZMN7
Chain of PDZRN4_1, Q6ZMN7 (Q6ZMN7 213-318): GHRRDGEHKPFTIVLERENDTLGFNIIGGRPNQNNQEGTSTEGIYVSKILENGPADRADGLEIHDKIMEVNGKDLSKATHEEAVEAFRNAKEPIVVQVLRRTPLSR

Binder	pKd (DLG3_3, Q92796)	pKd (Inadl_9, Q8NI35)	pKd (LNX1_1, Q8TBB1)	pKd (GRIP1_4, Q9Y3R0)	pKd (MAGI1_1, Q96QZ7)	pKd (CASK, O14936)	pKd (GRIP2_5, Q9C0E4)	pKd (IL16_4, Q14005)	pKd (APBA1_1, Q02410)	pKd (MPP7, Q5T2T1)	pKd (HTRA2, O43464)	pKd (FRMPD3, Q5JV73)	pKd (MAGI1_2, Q96QZ7)	pKd (GRIP2_4, Q9C0E4)	pKd (NHERF4_4, Q86UT5)	pKd (MPP6, Q9NZW5)	pKd (SNTG1, Q9NSN8)	pKd (LNX1_3, Q8TBB1)	pKd (DLG1_3, Q12959)	pKd (FRMPD2_1, Q68DX3)	also measured
EFKQTSSFLV [JAM1, Q9Y624]	below the threshold	3.86	3.6	below the threshold	3.49	below the threshold	below the threshold	below the threshold	below the threshold	3.74	3.78	below the threshold	below the threshold	below the threshold	below the threshold	below the threshold	below the threshold	below the threshold	below the threshold	3.75	pKd (IL16_3, Q14005): below the threshold; pKd (GRIP2_6, Q9C0E4): 4.35; pKd (LIN7A, O14910): below the threshold; pKd (LIMK2, P53671): below the threshold; pKd (RAPGEF6, Q8TEU7): below the threshold; pKd (LDB3, O75112): below the threshold; pKd (MAST1, Q9Y2H9): 3.56; pKd (HTRA1, Q92743): 5.15; pKd (PDZRN4_1, Q6ZMN7): below the threshold
GNDPDRGTSI [GRID2, O43424]	below the threshold	below the threshold	3.67	below the threshold	below the threshold	below the threshold	below the threshold	below the threshold	below the threshold	below the threshold	below the threshold	below the threshold	below the threshold	below the threshold	below the threshold	below the threshold	below the threshold	below the threshold	below the threshold	below the threshold	pKd (IL16_3, Q14005): below the threshold; pKd (GRIP2_6, Q9C0E4): below the threshold; pKd (LIN7A, O14910): below the threshold; pKd (LIMK2, P53671): below the threshold; pKd (RAPGEF6, Q8TEU7): below the threshold; pKd (LDB3, O75112): below the threshold; pKd (MAST1, Q9Y2H9): 3.94; pKd (HTRA1, Q92743): below the threshold; pKd (PDZRN4_1, Q6ZMN7): 3.49
SGDGKTSVWI [GJC1, P36383]	below the threshold	3.85	below the threshold	below the threshold	below the threshold	below the threshold	below the threshold	below the threshold	3.69	below the threshold	4.25	below the threshold	below the threshold	below the threshold	4.24	below the threshold	3.61	below the threshold	below the threshold	3.71	pKd (IL16_3, Q14005): below the threshold; pKd (GRIP2_6, Q9C0E4): 3.55; pKd (LIN7A, O14910): below the threshold; pKd (LIMK2, P53671): below the threshold; pKd (RAPGEF6, Q8TEU7): below the threshold; pKd (LDB3, O75112): below the threshold; pKd (MAST1, Q9Y2H9): below the threshold; pKd (HTRA1, Q92743): 4.93; pKd (PDZRN4_1, Q6ZMN7): below the threshold

More lines, main results first:

pKd (DLG3_3, Q92796)	pKd (Inadl_9, Q8NI35)	pKd (LNX1_1, Q8TBB1)	pKd (GRIP1_4, Q9Y3R0)	pKd (MAGI1_1, Q96QZ7)	pKd (CASK, O14936)	pKd (GRIP2_5, Q9C0E4)	pKd (IL16_4, Q14005)	pKd (APBA1_1, Q02410)	pKd (MPP7, Q5T2T1)	pKd (HTRA2, O43464)	pKd (FRMPD3, Q5JV73)	pKd (MAGI1_2, Q96QZ7)	pKd (GRIP2_4, Q9C0E4)	pKd (NHERF4_4, Q86UT5)	pKd (MPP6, Q9NZW5)	pKd (SNTG1, Q9NSN8)	pKd (LNX1_3, Q8TBB1)	pKd (DLG1_3, Q12959)	pKd (FRMPD2_1, Q68DX3)	Binder	also measured
below the threshold	below the threshold	below the threshold	below the threshold	below the threshold	below the threshold	below the threshold	below the threshold	below the threshold	3.75	3.88	below the threshold	below the threshold	below the threshold	below the threshold	below the threshold	below the threshold	below the threshold	below the threshold	3.55	DFKHTKSFII [JAM2, P57087]	pKd (IL16_3, Q14005): below the threshold; pKd (GRIP2_6, Q9C0E4): 4.41; pKd (LIN7A, O14910): below the threshold; pKd (LIMK2, P53671): below the threshold; pKd (RAPGEF6, Q8TEU7): below the threshold; pKd (LDB3, O75112): below the threshold; pKd (MAST1, Q9Y2H9): 3.7; pKd (HTRA1, Q92743): 4.97; pKd (PDZRN4_1, Q6ZMN7): below the threshold
below the threshold	below the threshold	below the threshold	below the threshold	below the threshold	below the threshold	below the threshold	below the threshold	below the threshold	below the threshold	below the threshold	below the threshold	below the threshold	below the threshold	below the threshold	below the threshold	below the threshold	below the threshold	below the threshold	below the threshold	SQPLLVHDDV [KIT, P10721]	pKd (IL16_3, Q14005): below the threshold; pKd (GRIP2_6, Q9C0E4): below the threshold; pKd (LIN7A, O14910): below the threshold; pKd (LIMK2, P53671): below the threshold; pKd (RAPGEF6, Q8TEU7): below the threshold; pKd (LDB3, O75112): below the threshold; pKd (MAST1, Q9Y2H9): below the threshold; pKd (HTRA1, Q92743): below the threshold; pKd (PDZRN4_1, Q6ZMN7): below the threshold
